Measurements from patent US11938198B2, “Treatment of heart disease by disruption of the anchoring of PP2A” (University of Miami, priority 2019, dated 2024).
Residue numbers refer to the chain shown, from its start. Names may count otherwise.

Tests used:
[1] = system: adult rat ventricular myocytes (ARVM); experiment: ARVM morphologic hypertrophy (cell width and length by immunocytochemistry); assay type: cell-based; conditions: for PE-induced ARVM hypertrophy / basal ARVM morphology: adenoviral expression; for PE-induced ARVM hypertrophy: 20 μM PE 24 hours; for basal ARVM morphology: no drug
Protocol: Adult rat ventricular myocyte isolation and culture: 2-3 month old rats were anesthetized using Ketamine (80-100 mg/kg) and Xylazine (5-10 mg/kg) IP following 1000 U heparinization for cardiac excision. The heart was transferred immediately into chilled perfusion buffer (NaCl 120 mM, KCl 5.4 mM, Na2HPO4·7H2O 1.2 mM, NaHCO320.0 mM, MgCl2·6H2O 1.6 mM, Taurine 5 mM, Glucose 5.6 mM, 2,3-Butanedione monoxime 10 mM) pre-equilibrated with 95% O2 and 5% CO2. After removal of extraneous tissue, the heart was attached via the aorta to a Harvard Langendorff apparatus cannula. Ca^2+-free perfusion was used to flush out remaining blood with a constant rate of 8-10 mL/min at 37° C. The heart was then digested through circulatory perfusion with 50 mL perfusion buffer containing 125 mg type II collagenase (Worthington, 245 U/mg), 0.1 mg protease (Sigma type XIV) and 0.1% BSA. After perfusion, the atria were removed and the ventricular myocytes dissociated by slicing and repetitive pipetting. The debris was filtered by a 200 μm nylon mesh, and the myocytes collected by one minute centrifugation at 50 g. Ca^2+ concentration in the buffer was gradually recovered to 1.8 mM and the myocytes were resuspended in ACCT medium (M199 Medium (Invitrogen 11150-059), Creatine 5 mM, L-carnitine 2 mM, Taurine 5 mM, HEPES 25 mM, 2,3-Butanedione monoxime 10 mM, BSA 0.2% and 1×Insulin-Transferrin-Selenium Supplement) and plated on 10 μg/ml laminin pre-coated dishes. Cells were washed with ACCT medium 1.5 hours after plating and subjected to adenoviral infection or siRNA transfection, in which 100-200 Multiplicity of Infection (MOI) of adenovirus and 100 nmol/L siRNA mixed with Dharmafect1 (Dharmacon) were used, respectively. Adrenergic agonists were added the next day, with biochemical assay and morphological measurement performed after 24 hours of stimulation.
Immunocytochemistry: Myocytes on coverslips were fixed in 3.7% formaldehyde in PBS for 1 hour, permeabilized with 0.3% Triton X-100, and blocked in PBS containing 0.2% BSA and 1% horse serum. The slides were then sequentially incubated for 1 hour with primary and Alexa fluorescent dye-conjugated specific-secondary antibodies (Invitrogen, 1:1000) diluted in blocking buffer. The slips were washed three times with blocking buffer. 1 μg/mL Hoechst 33258 was included in the last wash stop to label nuclei. Slides were sealed in SlowFade Gold antifade buffer (Invitrogen, S36938) for fluorescent microscopy. Wide-field images were acquired using a Leica DM4000 Microscope.

PDE4D3 Ser-54 = PDE4D3 Ser-54 phosphorylation in mAKAP immunoprecipitates from transfected HEK293 cells (phospho-specific immunoblot); assay type: cell-based
PP2A-A subunit = molecular target: T1, PP2A-A subunit (Homo sapiens, UniProt P30153); experiment: GST-PP2A-A pull-down of GFP-tagged mAKAP fragments expressed in HEK293 cells; assay type: binding; conditions: GFP-tagged fragments in HEK293 cell extracts
T1 construct: made in house; host or cells: bacteria
Protocol: GST-pulldowns—Glutathione resin adsorbed with PP2A-A subunit GST fusion protein or GST control protein were incubated with HEK293 cell extracts. After an overnight incubation, the beads were washed three times. Bound proteins were analyzed by immunoblotting.
mAKAP residues 2083-2319 contain the PP2A binding domain. In order to map the PP2A binding site on mAKAP, a bacterially-expressed PP2A-A subunit GST-fusion protein was used to pull down GFP-tagged fragments of mAKAP expressed in HEK293 cells (FIGS. 10A & B). GST-PP2A-A consistently pulled down only fragments of mAKAP containing a domain C-terminal to residue 2085.

PP2A = molecular target: T2, PP2A (Homo sapiens, UniProt P30153+P67775); experiment: myc-tag immunoprecipitation of mAKAP fragments from HEK293 cells with phosphatase assay; assay type: binding; conditions: myc-tagged fragments expressed in HEK293 cells
T2 construct: endogenous in cells; host or cells: HEK293
Protocol: Immunoprecipitation—HEK293 cells were used in this project as a heterologous system lacking mAKAP in which the various wildtype and mutant proteins could be easily expressed. Cells cultured on 60 mm plates were transfected at 50%-70% confluency by the calcium phosphate method, using 6 μg of each DNA construct per plate. Cells were harvested 24 hours after transfection in 0.5 ml HSE buffer (HEPES, pH 7.4, 150 mM NaCl, 5 mM EDTA, 1% Triton X-100 and protease inhibitors). Supernatants were incubated with 3 μg antibody and 15 μl prewashed protein A- or G-agarose beads. Following overnight incubation at 4° C., the immunoprecipitates were washed three times with the same buffer. Bound proteins were analyzed by immunoblotting.
To measure phosphatase activity, immunoprecipitated protein complexes were washed twice in HSE buffer and once in PP2A reaction buffer. The immunoprecipitates were incubated for 30 minutes at 30° C. in 20 μl PP2A assay buffer containing 100,000 cpm [^32P]histone in the presence and absence of inhibitors. The PP2A inhibitor (Calbiochem) was used at a concentration of 30 nM. Purified I-1 was phosphorylated by PKA before using as a specific PP1 inhibitor. Reactions were terminated by the addition of 100 μl 20% TCA followed by 10 min centrifugation. TCA supernatants containing released ^32PO4 were measured by scintillation counting. […]

T1 sequence (P30153 whole entry, the tested form may be a part): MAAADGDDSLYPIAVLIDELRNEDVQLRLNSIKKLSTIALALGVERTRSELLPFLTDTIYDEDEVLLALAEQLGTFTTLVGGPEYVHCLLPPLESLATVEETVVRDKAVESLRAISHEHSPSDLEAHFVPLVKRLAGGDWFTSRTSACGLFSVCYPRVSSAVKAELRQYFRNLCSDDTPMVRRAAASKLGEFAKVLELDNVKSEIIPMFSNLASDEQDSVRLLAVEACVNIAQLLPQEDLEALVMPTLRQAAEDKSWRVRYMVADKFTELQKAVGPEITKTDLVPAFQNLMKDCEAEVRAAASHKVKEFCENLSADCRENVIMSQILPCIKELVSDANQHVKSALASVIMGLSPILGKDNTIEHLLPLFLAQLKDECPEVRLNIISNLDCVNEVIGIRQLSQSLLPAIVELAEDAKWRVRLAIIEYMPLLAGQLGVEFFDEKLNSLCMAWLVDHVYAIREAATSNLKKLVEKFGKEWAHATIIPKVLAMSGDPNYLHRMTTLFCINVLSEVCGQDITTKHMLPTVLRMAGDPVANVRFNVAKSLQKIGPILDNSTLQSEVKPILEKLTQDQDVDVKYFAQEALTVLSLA
T2 sequence (P67775 whole entry, the tested form may be a part): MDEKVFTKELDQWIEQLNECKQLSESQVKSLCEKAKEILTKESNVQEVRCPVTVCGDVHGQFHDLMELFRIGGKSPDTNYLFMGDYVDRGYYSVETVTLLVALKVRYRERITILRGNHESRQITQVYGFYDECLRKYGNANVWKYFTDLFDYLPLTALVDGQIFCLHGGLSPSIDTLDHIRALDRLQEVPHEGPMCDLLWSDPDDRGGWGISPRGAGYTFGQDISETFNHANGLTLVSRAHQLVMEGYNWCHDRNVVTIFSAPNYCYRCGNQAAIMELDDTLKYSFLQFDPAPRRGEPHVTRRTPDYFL
T2 sequence (P30153 whole entry, the tested form may be a part): as the sequence (P30153 whole entry, the tested form may be a part) above

## CC(C)NCC(O)c1ccc(O)c(O)c1 (stereo not drawn) [Iso, isoproterenol, reference compound]
[1]; 10 μM Iso, 24 hours
  ARVM length and width under chronic β-adrenergic stimulation: increased both ARVM length and width

## CNC[C@H](O)c1cccc(O)c1 [PE, phenylephrine, reference compound]
[1]; 20 μM PE, 24 hours
  decrease in ARVM length/width ratio: 8-14%
  increase in ARVM width: 8-10%

## C=C[C@@]1(C)CC(=O)[C@]2(O)[C@@]3(C)[C@@H](O)CCC(C)(C)[C@@H]3[C@H](O)[C@H](OC(C)=O)[C@@]2(C)O1 [Fsk, forskolin]
PDE4D3 Ser-54; 5 μM Fsk 10 min, in the presence of OA
  further enhancement of PDE4D3 Ser-54 phosphorylation by forskolin: 1.8 fold
PDE4D3 Ser-54; 5 μM Fsk, absence of phosphatase inhibition
  PDE4D3 Ser-54 phosphorylation, forskolin alone: no significant effect

B1: human 2085-2319: GFP-fusion fragment of human mAKAP residues 2085-2319 (protein)
chain: TSLTQIKEKVLEHSHRPIQLRKGDFYSYLSLSSHDSDCGEVTNYIEEKSSTPLPLDTTDSGLDDKEDIECFFEACVEGDSDGEEPCFSSAPPNESAVPSEAAMPLQATACSSEFSDSSLSADDADTVALSSPSSQERAEVGKEVNGLPQTSSGCAENLEFTPSKLDSEKESSGKPGESGMPEEHNAASAKSKVQDLSLKANQPTDKAALHPSPKTLTCEENLLNLHEKRHRNMHR
modifications: left off: large carriers
PP2A-A subunit
  binding to GST-PP2A-A (pull-down): bound GST-PP2A-A

B2: SRF S103D: SRF phosphomimetic mutant expressed by adenovirus (protein, UniProt P11831 1-508, looked up, variant S103D)
Serum response factor: MLPTQAGAAAALGRGSALGGSLNRTPTGRPGGGGGTRGANGGRVPGNGAGLGPGRLEREAAAAAATTPAPTAGALYSGSEGDSESGEEEELGAERRGLKRSLDEMEIGMVVGGPEASAAATGGYGPVSGAVSGAKPGKKTRGRVKIKMEFIDNKLRRYTTFSKRKTGIMKKAYELSTLTGTQVLLLVASETGHVYTFATRKLQPMITSETGKALIQTCLNSPDSPPRSDPTTDQRMSATGFEETDLTYQVSESDSSGETKDTLKPAFTVTNLPGTTSTIQTAPSTSTTMQVSSGPSFPITNYLAPVSASVSPSAVSSANGTVLKSTGSGPVSSGGLMQLPTSFTLMPGGAVAQQVPVQAIQVHQAPQQASPSRDSSTDLTQTSSSGTVTLPATIMTSSVPTTVGGHMMYPSPHAVMYAPTSGLGDGSLTVLNAFSQAPSTMQVSHSQVQEPGGVPQVFLTASSGTVQIPVSAVQLHQMAVIGQQAGSSSNLTELQVVNLDTAHSTKSE
[1]
  PE-induced ARVM hypertrophy: did not enhance nor diminish
  basal ARVM morphology: increased ARVM width

B3: SRF S103A: SRF Ser103-to-alanine mutant expressed by adenovirus (protein, UniProt P11831 1-508, looked up, variant S103A)
Serum response factor: B2 Serum response factor with D103A
[1]
  PE-induced ARVM hypertrophy: inhibited the PE-induced concentric hypertrophy
  basal ARVM morphology: did not affect basal myocyte size

B4: mAKAP 1286-2312: myc-tagged mAKAP construct containing binding sites for PDE4D3, PKA and PP2A (protein)
chain: VYSLHNVELHEDSHTPFLKSSPKFTGTTQPTVLTKSLSKDSSFSSTKSLPDLLGGSGLVRPYSCHSGDLSQNSGSESGIVSEGDNEMPTNSDMSLFSMVDGSPSNPETEHPDPQMGDAANVLEQKFKDNGESIKLSSVSRASVSPVGCVNGKAGDLNSVTKHTADCLGEELQGKHDVFTFYDYSYLQGSKLKLPMIMKQPQSEKAHVEDPLLGGFYFDKKSCKAKHQASESQPDAPPHERILASAPHEMGRSAYKSSDIEKTFTGIQSARQLSLLSRSSSVESLSPGGDLFGLGIFKNGSDSLQRSTSLESWLTSYKSNEDLFSCHSSGDISVSSGSVGELSKRTLDLLNRLENIQSPSEQKIKRSVSDMTLQSSSQKMPFAGQMSLDVASSINEDSPASLTELSSSDELSLCSEDIVLHKNKIPESNASFRKRLNRSVADESDVNVSMIVNVSCTSACTDDEDDSDLLSSSTLTLTEEELCLKDEDDDSSIATDDEIYEESNLMSGLDYIKNELQTWIRPKLSLTREKKRSGVTDEIKVNKDGGGNEKANPSDTLDIEALLNGSIRCLSENNGNGKTPPRTHGSGTKGENKKSTYDVSKDPHVADMENGNIESTPEREREKPQGLPEVSENLASNVKTISESELSEYEAVMDGSEDSSVARKEFCPPNDRHPPQMGPKLQHPENQSGDCKPVQNPCPGLLSEAGVGSRQDSNGLKSLPNDAPSGARKPAGCCLLEQNETEESASISSNASCCNCKPDVFHQKDDEDCSVHDFVKEIIDMASTALKSKSQPESEVAAPTSLTQIKEKVLEHSHRPIHLRKGDFYSYLSLSSHDSDCGEVTNYIDEKSSTPLPPDAVDSGLDDKEDMDCFFEACVEDEPVNEEAGLPGALPNESAIEDGAEQKSEQKTASSPVLSDKTDLVPLSGLSPQKGADDAKEGDDVSHTSQGCAESTEPTTPSGKANAEGRSRMQGVSATPEENAASAKPKIQAFSLNAKQPKGKVAMRYPSPQTLTCKEKLVNFHEDRHSNM
modifications: left off: small tags and cut ends
PP2A
  co-immunoprecipitation with OA-sensitive phosphatase activity: co-immunoprecipitated with OA-sensitive phosphatase activity

B5: rat mAKAP 1835-2312: GFP-fusion fragment of rat mAKAP (protein)
chain: ANPSDTLDIEALLNGSIRCLSENNGNGKTPPRTHGSGTKGENKKSTYDVSKDPHVADMENGNIESTPEREREKPQGLPEVSENLASNVKTISESELSEYEAVMDGSEDSSVARKEFCPPNDRHPPQMGPKLQHPENQSGDCKPVQNPCPGLLSEAGVGSRQDSNGLKSLPNDAPSGARKPAGCCLLEQNETEESASISSNASCCNCKPDVFHQKDDEDCSVHDFVKEIIDMASTALKSKSQPESEVAAPTSLTQIKEKVLEHSHRPIHLRKGDFYSYLSLSSHDSDCGEVTNYIDEKSSTPLPPDAVDSGLDDKEDMDCFFEACVEDEPVNEEAGLPGALPNESAIEDGAEQKSEQKTASSPVLSDKTDLVPLSGLSPQKGADDAKEGDDVSHTSQGCAESTEPTTPSGKANAEGRSRMQGVSATPEENAASAKPKIQAFSLNAKQPKGKVAMRYPSPQTLTCKEKLVNFHEDRHSNM
modifications: left off: large carriers
PP2A-A subunit
  binding to GST-PP2A-A (pull-down): bound GST-PP2A-A
